Measurements reported in publication PMC12098869, “An mRNA-display derived cyclic peptide scaffold reveals the substrate binding interactions of an N-terminal cysteine oxidase” (Nature Communications, 2025).

What was measured:
Assay in all cases: SPR; multi-cycle, equilibrium steady state affinity 1:1 binding model; biotinylated ADO or variant immobilised on a Biotin CAP chip (~2500-3000 RU), peptide injected; 4 °C; 20 mM HEPES pH 7.5, 500 mM NaCl, 10 mM DTT, 0.1% (v/v) tween-20; 50 μL/minute
Settings in all cases: both partners purified
[1] = biological target: T1, ADO-Y222A, biotinylated (pQE80L-Navi-ADO) (human, UniProt Q96SZ5 1-270, Y222A, biotin on the Avi tag)
T1 construct: Tag as in Dm1; source: E. coli Rosetta2(DE3), purified (Ni-NTA, SEC); not shown: Avi tag, N-terminal, kept; His6, N-terminal, kept
T1 sequence (looked up): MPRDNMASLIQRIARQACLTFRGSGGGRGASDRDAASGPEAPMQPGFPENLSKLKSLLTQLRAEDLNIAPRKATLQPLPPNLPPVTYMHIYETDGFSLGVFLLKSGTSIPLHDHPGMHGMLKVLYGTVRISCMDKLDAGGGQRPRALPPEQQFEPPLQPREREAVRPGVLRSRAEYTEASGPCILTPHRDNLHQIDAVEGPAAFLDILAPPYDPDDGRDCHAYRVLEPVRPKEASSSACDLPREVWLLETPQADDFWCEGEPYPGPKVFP
In short: (§1)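 Biotinylated full-length human ADO (wild type or engineered forms) was made in E. coli with a His tag, then purified by nickel affinity and gel filtration. It was captured on a Biotin CAP chip at about 2500–3000 RU in a Biacore T200, and peptides were flowed over it. The run was at 4 °C in HEPES pH 7.5 buffer with 500 mM NaCl, DTT and tween-20, at 50 μL/minute. Kd came from a 1:1 steady-state fit of multi-cycle equilibrium responses.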

[2] = biological target: T2, ADO-F101A, biotinylated (pQE80L-Navi-ADO) (human, UniProt Q96SZ5 1-270, F101A, biotin on the Avi tag)
T2 construct: Tag as in Dm1; source: E. coli Rosetta2(DE3), purified (Ni-NTA, SEC); not shown: Avi tag, N-terminal, kept; His6, N-terminal, kept
T2 sequence (looked up): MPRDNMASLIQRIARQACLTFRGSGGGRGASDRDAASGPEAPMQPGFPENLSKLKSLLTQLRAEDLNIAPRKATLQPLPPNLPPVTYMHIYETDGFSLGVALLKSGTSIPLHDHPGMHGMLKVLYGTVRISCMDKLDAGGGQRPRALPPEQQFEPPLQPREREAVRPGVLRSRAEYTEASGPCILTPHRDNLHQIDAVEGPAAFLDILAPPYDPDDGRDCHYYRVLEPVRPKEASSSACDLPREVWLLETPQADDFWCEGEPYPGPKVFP
In short: as §1

[3] = biological target: T3, ADO-C220A, biotinylated (pQE80L-Navi-ADO) (human, UniProt Q96SZ5 1-270, C220A, biotin on the Avi tag)
T3 construct: Tag as in Dm1; source: E. coli Rosetta2(DE3), purified (Ni-NTA, SEC); not shown: Avi tag, N-terminal, kept; His6, N-terminal, kept
T3 sequence (looked up): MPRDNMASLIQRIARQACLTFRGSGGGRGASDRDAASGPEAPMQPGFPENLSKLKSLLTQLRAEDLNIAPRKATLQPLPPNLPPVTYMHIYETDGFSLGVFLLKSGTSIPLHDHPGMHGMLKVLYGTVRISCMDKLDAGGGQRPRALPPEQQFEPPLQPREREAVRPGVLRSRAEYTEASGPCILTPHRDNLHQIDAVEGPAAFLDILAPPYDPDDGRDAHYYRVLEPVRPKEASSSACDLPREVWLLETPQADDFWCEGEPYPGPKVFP
In short: as §1

[4] = biological target: T4, ADO-I109A, biotinylated (pQE80L-Navi-ADO) (human, UniProt Q96SZ5 1-270, I109A, biotin on the Avi tag)
T4 construct: Tag as in Dm1; source: E. coli Rosetta2(DE3), purified (Ni-NTA, SEC); not shown: Avi tag, N-terminal, kept; His6, N-terminal, kept
T4 sequence (looked up): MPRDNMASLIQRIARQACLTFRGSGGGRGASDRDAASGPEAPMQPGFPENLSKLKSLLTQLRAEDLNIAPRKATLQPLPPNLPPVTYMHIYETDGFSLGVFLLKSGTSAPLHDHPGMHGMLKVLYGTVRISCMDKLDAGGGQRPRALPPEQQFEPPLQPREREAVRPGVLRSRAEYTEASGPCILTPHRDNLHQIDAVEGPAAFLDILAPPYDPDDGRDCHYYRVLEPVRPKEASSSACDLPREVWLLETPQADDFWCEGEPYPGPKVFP
In short: as §1

[5] = biological target: T5, ADO-Y212A, biotinylated (pQE80L-Navi-ADO) (human, UniProt Q96SZ5 1-270, Y212A, biotin on the Avi tag)
T5 construct: Tag as in Dm1; source: E. coli Rosetta2(DE3), purified (Ni-NTA, SEC); not shown: Avi tag, N-terminal, kept; His6, N-terminal, kept
T5 sequence (looked up): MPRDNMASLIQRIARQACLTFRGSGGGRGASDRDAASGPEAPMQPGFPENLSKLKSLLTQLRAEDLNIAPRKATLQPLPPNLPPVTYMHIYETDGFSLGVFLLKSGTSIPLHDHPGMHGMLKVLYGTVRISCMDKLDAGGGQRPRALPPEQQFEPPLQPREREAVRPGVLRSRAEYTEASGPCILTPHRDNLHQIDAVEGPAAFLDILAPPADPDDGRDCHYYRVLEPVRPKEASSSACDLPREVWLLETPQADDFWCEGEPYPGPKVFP
In short: as §1

Binder | Kd [1] | Kd [2] | Kd [3] | Kd [4] | Kd [5]
CKGLAALPHSCLER (peptide, UniProt O15539 2-15, looked up, Regulator of G-protein signalling 5 (RGS5), residues 2 to 15, N-terminal Cys; also called RGS5 peptide; source: synthetic peptide) | 4700 nM | 47 µM | 1100 nM | 1.3 µM | 72 µM
CFPKVLSDDMKKLK (peptide, UniProt P24001 2-15, looked up, Interleukin 32 (IL32), residues 2-15, N-terminal Cys; also called IL32 peptide; source: synthetic peptide) | 1000 nM | 37 µM | 1300 nM | 16 µM | 29 µM
